Experimental data: PMC8164090

Biological target: Cnn-C^S186D scaffolds (Cnn-C-PReM^m with S186 phosphomimicked) (Drosophila melanogaster)

With “γ-tubulin37C-mCherry (from UniProt P42271 1-457) (natural protein)” the recruitment of γ-tubulin to scaffolds in unfertilized eggs, fold over Cnn-C scaffolds was 3.8 fold.
